Target: RFP-tagged cargo selection complex (Vps35, Vps26, Vps29-RFP) (S. cerevisiae, UniProt P34110;P40335;P38759)
Assay: recruitment to giant unilamellar vesicles

Sequence of RFP-tagged cargo selection complex (Vps35, Vps26, Vps29-RFP) (P34110 whole entry, chain 1 of 3): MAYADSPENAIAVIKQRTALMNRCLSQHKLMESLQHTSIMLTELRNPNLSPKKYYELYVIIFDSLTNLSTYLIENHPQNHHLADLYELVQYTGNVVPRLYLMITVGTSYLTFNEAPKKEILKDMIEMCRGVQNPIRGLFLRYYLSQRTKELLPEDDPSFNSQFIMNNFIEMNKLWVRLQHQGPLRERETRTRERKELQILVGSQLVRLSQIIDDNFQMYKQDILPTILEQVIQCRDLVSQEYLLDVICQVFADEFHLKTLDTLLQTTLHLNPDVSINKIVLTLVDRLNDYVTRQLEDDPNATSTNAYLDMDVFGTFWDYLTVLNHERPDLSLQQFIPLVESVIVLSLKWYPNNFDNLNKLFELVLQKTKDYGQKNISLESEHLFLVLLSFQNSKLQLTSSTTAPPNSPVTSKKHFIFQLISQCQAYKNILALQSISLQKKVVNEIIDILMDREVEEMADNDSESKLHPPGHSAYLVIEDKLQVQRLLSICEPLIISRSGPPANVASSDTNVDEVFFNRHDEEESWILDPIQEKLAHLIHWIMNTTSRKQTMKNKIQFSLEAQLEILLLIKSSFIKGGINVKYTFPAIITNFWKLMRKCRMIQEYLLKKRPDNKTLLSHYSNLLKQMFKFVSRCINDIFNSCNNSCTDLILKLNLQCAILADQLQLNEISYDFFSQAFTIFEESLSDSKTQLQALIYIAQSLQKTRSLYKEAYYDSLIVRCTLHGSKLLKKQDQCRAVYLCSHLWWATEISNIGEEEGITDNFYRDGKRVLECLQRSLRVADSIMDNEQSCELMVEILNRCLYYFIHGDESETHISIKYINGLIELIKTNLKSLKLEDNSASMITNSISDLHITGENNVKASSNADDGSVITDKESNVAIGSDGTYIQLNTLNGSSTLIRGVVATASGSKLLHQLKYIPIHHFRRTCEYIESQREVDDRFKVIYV
Sequence of RFP-tagged cargo selection complex (Vps35, Vps26, Vps29-RFP) (P40335 whole entry, chain 2 of 3): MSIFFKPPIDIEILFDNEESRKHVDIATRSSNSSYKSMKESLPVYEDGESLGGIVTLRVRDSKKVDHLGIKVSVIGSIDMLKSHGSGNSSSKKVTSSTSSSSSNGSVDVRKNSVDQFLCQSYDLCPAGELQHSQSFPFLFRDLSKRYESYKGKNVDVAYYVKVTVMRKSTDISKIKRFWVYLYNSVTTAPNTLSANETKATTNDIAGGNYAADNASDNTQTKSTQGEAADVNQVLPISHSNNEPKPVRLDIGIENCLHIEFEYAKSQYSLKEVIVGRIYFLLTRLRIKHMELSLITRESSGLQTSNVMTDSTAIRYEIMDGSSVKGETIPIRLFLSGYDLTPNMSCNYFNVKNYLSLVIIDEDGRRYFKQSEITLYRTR
Sequence of RFP-tagged cargo selection complex (Vps35, Vps26, Vps29-RFP) (P38759 whole entry, chain 3 of 3): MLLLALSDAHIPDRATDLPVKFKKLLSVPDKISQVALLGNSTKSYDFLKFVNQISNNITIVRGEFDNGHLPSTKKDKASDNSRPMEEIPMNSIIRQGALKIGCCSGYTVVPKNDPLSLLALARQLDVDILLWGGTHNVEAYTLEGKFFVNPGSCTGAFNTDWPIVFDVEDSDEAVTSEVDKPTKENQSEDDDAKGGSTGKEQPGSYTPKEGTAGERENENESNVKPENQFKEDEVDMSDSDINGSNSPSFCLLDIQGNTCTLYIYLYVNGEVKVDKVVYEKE

Row | binding result | Binder
1 | binds | GFP-tagged SNX-BAR complex (Vps5-Vps17 heterodimer with Vps17-GFP) (complex) chain 1: MDYEDNLEAPVWDELNHEGDKTQSLVSNSIESIGQISTNEERKDNELLETTASFADKIDLDSAPEWKDPGLSVAGNPQLEEHDNSKADDLINSLAPEQDPIADLKNSTTQFIATRESGGALFTGNANSPLVFDDTIYDANTSPNTSKSISGRRSGKPRILFDSARAQRNSKRNHSLKAKRTTASDDTIKTPFTDPLKKAEKENEFVEEPLDDRNERRENNEGKFTASVEKNILEQVDRPLYNLPQTGANISSPAEVEENSEKFGKTKIGSKVPPTEKAVAFKVEVKDPVKVGELTSIHVEYTVISESSLLELKYAQVSRRYRDFRWLYRQLQNNHWGKVIPPPPEKQSVGSFKENFIENRRFQMESMLKKICQDPVLQKDKDFLLFLTSDDFSSESKKRAFLTGSGAINDSNDLSEVRISEIQLLGAEDAAEVLKNGGIDAESHKGFMSISFSSLPKYNEADEFFIEKKQKIDELEDNLKKLSKSLEMVDTSRNTLAASTEEFSSMVETLASLNVSEPNSELLNNFADVHKSIKSSLERSSLQETLTMGVMLDDYIRSLASVKAIFNQRSKLGYFLVVIENDMNKKHSQLGKLGQNIHSEKFREMRKEFQTLERRYNLTKKQWQAVGDKIKDEFQGFSTDKIREFRNGMEISLEAAIESQKECIELWETFYQTNL chain 2: MTSAVPYDPYDDLDNNPFAEPQEEDSEPAATTTDGSSSMSEERVGTEQTAASVQDNGTANNIQNGLGEEGNATRSKTSNEHNENQQPSQPSERVILPERSDEKKKYTLLAKVTGLERFGSATGKKENPTIIFDCSTNLPTFRKQQYKNVKKSYEEFHQLFKYLNVAIQESFVPTLPSAYTTFGINSEEDRMKVTRNFQLWFNRLSQDPLIIRNEEVAFFIESDFNTYTPINKSKSLASGLKRKTLKQLAPPYDEITELAEFRPLVKSIYVVSQSLQEKLLRVSRNRKMMVQEENAFGQDFVNLDEHNKLYRRYGKILTAVGDIDSIIATMDMATLYDGLEWIVRDAYAVKEALTNRHFIMRNLVQAQQNSKAKQEQARRFRSRRDINPMKIDEALRQLKAAAKNEQVLTLKLQRITSNMIIERKQWISWYEEWIRSSIKEFTLRKIEYERKKLTLLERVRSDIRKADENGGLSRLGRHAVSNNNSDTSQTLKGDSWTGESNRKSQIPINKIAHTEFDDELFTEDDGYNSQDSDTTSLNARHAASLLGMSTK
2 | binds | SNX-BAR complex without GFP tag (Vps5-Vps17 heterodimer) (complex) chain 1: MDYEDNLEAPVWDELNHEGDKTQSLVSNSIESIGQISTNEERKDNELLETTASFADKIDLDSAPEWKDPGLSVAGNPQLEEHDNSKADDLINSLAPEQDPIADLKNSTTQFIATRESGGALFTGNANSPLVFDDTIYDANTSPNTSKSISGRRSGKPRILFDSARAQRNSKRNHSLKAKRTTASDDTIKTPFTDPLKKAEKENEFVEEPLDDRNERRENNEGKFTASVEKNILEQVDRPLYNLPQTGANISSPAEVEENSEKFGKTKIGSKVPPTEKAVAFKVEVKDPVKVGELTSIHVEYTVISESSLLELKYAQVSRRYRDFRWLYRQLQNNHWGKVIPPPPEKQSVGSFKENFIENRRFQMESMLKKICQDPVLQKDKDFLLFLTSDDFSSESKKRAFLTGSGAINDSNDLSEVRISEIQLLGAEDAAEVLKNGGIDAESHKGFMSISFSSLPKYNEADEFFIEKKQKIDELEDNLKKLSKSLEMVDTSRNTLAASTEEFSSMVETLASLNVSEPNSELLNNFADVHKSIKSSLERSSLQETLTMGVMLDDYIRSLASVKAIFNQRSKLGYFLVVIENDMNKKHSQLGKLGQNIHSEKFREMRKEFQTLERRYNLTKKQWQAVGDKIKDEFQGFSTDKIREFRNGMEISLEAAIESQKECIELWETFYQTNL chain 2: MTSAVPYDPYDDLDNNPFAEPQEEDSEPAATTTDGSSSMSEERVGTEQTAASVQDNGTANNIQNGLGEEGNATRSKTSNEHNENQQPSQPSERVILPERSDEKKKYTLLAKVTGLERFGSATGKKENPTIIFDCSTNLPTFRKQQYKNVKKSYEEFHQLFKYLNVAIQESFVPTLPSAYTTFGINSEEDRMKVTRNFQLWFNRLSQDPLIIRNEEVAFFIESDFNTYTPINKSKSLASGLKRKTLKQLAPPYDEITELAEFRPLVKSIYVVSQSLQEKLLRVSRNRKMMVQEENAFGQDFVNLDEHNKLYRRYGKILTAVGDIDSIIATMDMATLYDGLEWIVRDAYAVKEALTNRHFIMRNLVQAQQNSKAKQEQARRFRSRRDINPMKIDEALRQLKAAAKNEQVLTLKLQRITSNMIIERKQWISWYEEWIRSSIKEFTLRKIEYERKKLTLLERVRSDIRKADENGGLSRLGRHAVSNNNSDTSQTLKGDSWTGESNRKSQIPINKIAHTEFDDELFTEDDGYNSQDSDTTSLNARHAASLLGMSTK
3 | binds | Snx3-mGFP (His-SUMO-Snx3-mGFP) (natural protein) MPREFKSFGSTEKSLLSKGHGEPSYSEIYAEPENFLEIEVHNPKTHIPNGMDSKGMFTDYEIICRTNLPSFHKRVSKVRRRYSDFEFFRKCLIKEISMLNHPKVMVPHLPGKILLSNRFSNEVIEERRQGLNTWMQSVAGHPLLQSGSKVLVRFIEAEKFVG
